Measurements: the nanobody polyreactivity screen of Harvey et al. (2022)

Test: yeast display, Sf9 membrane polyspecificity reagent, FACS + sequencing; frameworks hold sequencing errors
Summary of the method: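 After 36–48 hours of galactose induction, yeast (Saccharomyces cerevisiae BJ5465) displaying a synthetic nanobody library were stained at 4 °C for 1 hour with 10% biotinylated, detergent-solubilized Sf9 membrane reagent. Streptavidin microbeads enriched the stained cells before FACS sorting into low and high (top ~1%) gates on anti-HA and streptavidin fluorescence. Each clone's polyreactivity label reflects its gate of origin.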
With “QVQLVESGGGLVQAGGSLRLSCAASGYIYIVYSMGWYRQAPVKERELVAAISSGGITDYADSVKGRFTISRDNAKNTVYLQMNSLKPEDTAVYYWGQGTQVTVSA” the “polyreactivity (PSR sort gate)” value was “low polyreactivity”.
In the case of “QVQLVESGGGLVQAGGSLRLSCAASVITVRSYAMGWYRQAPGKERELVARISTDADTYYADSVKGRFTISRDNAKITVYLHMNSLKPEDTAVYYCAAEDYWDFDYWGQGTQVTVSS”, the “polyreactivity (PSR sort gate)” value is reported as “low polyreactivity”.
For “QVQLVESGGGLVQAGGSLRLSCAASGSIFYLYAMGWYRQAPGKERELVAGITTSGGTTYYADSVKGRFTISRDNAKNTVYLQMNSLKPEDTAVYYCNAAVGYYSLPYDYWGQGTQVTVSS”, the “polyreactivity (PSR sort gate)” value was “low polyreactivity”.
For “QVQLVESGRGLVQAGGSLRLSCAASGFIFRYYAMGWYRQAPGKERELVAAINASGGRTYYADSVKGRFTISRDNARNSVYLQMNSLKPEDTAVYYCAAYRSYQTFDYWGQGTQVNVSS”, the “polyreactivity (PSR sort gate)” value was “high polyreactivity”.
For “QVHLVESGGGLVQAGGSLRLSCAASGRIFTYYAMGWYRQAPGKERELVAAINSRGGRTYYADSVKGRFTISRDNAKNTVYLQMNSLKPEDTAVYYCNKAVYFAWGWGLRDYDYWGQGTQVTVSS”, the “polyreactivity (PSR sort gate)” value was “high polyreactivity”.
For “QVQLVESGGGLVQAGGSLRLSCAASGRIFAYNAMGWYREAPGKERELVASITSGGGRTYYADSVKGRFTISRDNAKNTVYLQMNSLKPEDTAVYYCNVDVSLSKFGSVLYDYWGQGTQVTVSS”, the “polyreactivity (PSR sort gate)” value was “low polyreactivity”.
For “QVQLVESGGGLVQAGGSLRLSCAASGRIFLSYAMGVYRQAPGKERELVAGITGTGGRTYYADSVKGRFTISRDNAKNTVYLLMNSLIPEDTAVSYCAAQRRDNIDPKHYYWGQGTQVTVSS”, the “polyreactivity (PSR sort gate)” value was “low polyreactivity”.
In the case of “QVQLVESGGGLVQAGGSLRLSCAASGRTFDTYVMGWYRQAPGKERELVAAISIGGNTNYADSVKGRFTISRDNAKNTVYLQMNSLKPEDTAVYYCAKAWSGISSRDYDLDYWGQGTQVTVSS”, the “polyreactivity (PSR sort gate)” value is reported as “low polyreactivity”.
In the case of “QVQLVESGGGLVQAGGSLRLSCAASGRTFRYYAMGWYRQAPGKERELVASISSTGGNTYYADSVKGRFTISRDNAKNTVYLQMNSLKPEDTAVYYCAAGAWTRGQYYYWGQGTQVTVSS”, the “polyreactivity (PSR sort gate)” value is reported as “high polyreactivity”.
With “QVQLVESGGGLVQAGGSLRLSCAASGSIFDLNAMGWYRQAPGKERELVAAISKSGGSTYYADSVKGRFTISRDNAKNTVYLQMNSLKPEDTAVYYCAARYHEPGYSYKFWGQGTQVTVSS” the “polyreactivity (PSR sort gate)” value was “low polyreactivity”.
For “QVQLVESGGGLVQAGGSLGLSCAATGSIFNPYAMGWYRQAPGKVRELVAAISSTGSTYYADSVKGRFTISRDNAKNTVYLQMISLKPEDTAVYYCAADWYWYWFSTYDYWGQGTEVTVSS”, the “polyreactivity (PSR sort gate)” value was “low polyreactivity”.
For “QVQLVESGGGLVQAGGSLRLSCAASVRIFSGYAMGWYRQAPGKERELVAAISQRGGSTTYADSVKGRFTISRDNAKNTVYLQMNSLKPEDTAVYYCAKRYTYPSGYDYWGQGTQVTVSS”, the “polyreactivity (PSR sort gate)” value was “low polyreactivity”.
With “QVQLVETGGGLVQAGGSLRLSCAASGSIFLKYAMGWYRQAPGKERELVAAISWSGGRTYYADSVKGRFTISRDNAKNTVYLQMNSLIPEDTAVYYCAAAGRVNNGYRGYGYWGQGTQVTVSS” the “polyreactivity (PSR sort gate)” value was “high polyreactivity”.
For “QVQLVESGGGLVQAGGSLRLSCAASGRTFRANAMGWSRQAPGKERELVAAITWDGGSTYYADSVKGRFTISRDNAKNTVYLQMNSLKPEDTAVYYCNTYPYLWGQGTQVTVSS”, the “polyreactivity (PSR sort gate)” value was “low polyreactivity”.
In the case of “QVQLVESGGGLVQAGGSLRLSCAASGFTFAWNAMGWYRQAPGKERELVATIDVSGGSTYYADSVKGRFTISRDNAKNTVYLQMNILKPEDTAVYYCAADELPEGGYDYWGHGTQVTVSS”, the “polyreactivity (PSR sort gate)” value is reported as “low polyreactivity”.
In the case of “QVQLVESGGGLVQAGGSLRLSCAASGSIFKPYAMGWYRQAPGKERELVAAINRGGTSTYYADSVKGRFTISRDNAKNTVYLQMISLKPEDTAVYYCAAPNRYSVPMYYWGQGTQVTVSS”, the “polyreactivity (PSR sort gate)” value is reported as “low polyreactivity”.
For “QVQLVESGGGLDQAGGSLRLSCAASGYTFFSNAMGWYRQAPGKERELVAAITFSGGSTYYADSVKGRFTISRDNAKNTVYLHMNSLKPEDTAVYYCATRYYYHYPRKHIYNYWGQGTQVTVSS”, the “polyreactivity (PSR sort gate)” value was “high polyreactivity”.
With “QVQLVESGGGLVQAGGSLRLSCAASGRIFHYNAMGWYRQAPAKERELVAAINRSGGTTNYADSVKGRFTISRDTAKNTVYLEMNSLIPEDTAVYYCNATLPDYWPYYYYLGGDDYWGQGTQVTVSS” the “polyreactivity (PSR sort gate)” value was “low polyreactivity”.
In the case of “QVQLVESGGGLVQAGGSLRLSCAASGIIFLLYSMGWYRQAPGKERELVAAITNGGRTNYADSVKGRFTISRDNAKNTVYLQMNSLKPEDTAVYYCNAVLSVPDYTLFDYWGQGTQVTVSS”, the “polyreactivity (PSR sort gate)” value is reported as “low polyreactivity”.
For “QVQLVESGGGLVQAGGSLRLSCAASGGTFSDNAMGWYRQAPGKERELVADIDIGGITYYADSVKGRFTISRDNAKNTVYLQMNSLIPEDTAVYYCAAVTTYYYYDVTDYAYEYYYWRQGTQVTVSS”, the “polyreactivity (PSR sort gate)” value was “low polyreactivity”.
With “QVQLVESGGGLVQAGGSLRLSCAASGFTFRFYAMGWYRQAPGKERELVAVITSRGTRTYYADSVKGRFTISRDNAKNTVYLQMNSLKPEDTAVYFCAKDFAFNGGISKYDYWGQGTQVTVSS” the “polyreactivity (PSR sort gate)” value was “high polyreactivity”.
For “QVQLVESGGGLVQAGGSLRLSCAASGFIFHYYAMGWYRQAPGKERELVAAISKTGGSTYYADSVKGRFTISRDNAKNTVYLQMNSLKPEDTAVYYCAVARSAYYRGNHWGQGTQVTVSS”, the “polyreactivity (PSR sort gate)” value was “high polyreactivity”.
For “QVQLVESGGGLVQAGGSLRLSCAASGRIFVGYAMGWYRQAPGKERELVAAINRSGSSTYYADSVKGRFTISRDNAKNTVYLQMNSLKPEDTAVYYCNARSGNRYGPRYDYWGQGTQVTVSS”, the “polyreactivity (PSR sort gate)” value was “high polyreactivity”.
In the case of “QVLLVESGGGLVQAGGSLRLSCAASGLTFRYYAMGWYRQAPGKERELVAAITSGGSTYYADSVKGRFTISRDNAKNTVYLQMNSLKPEDTAVYYCNKLLGRTVRHDYWGQGTQVTVSS”, the “polyreactivity (PSR sort gate)” value is reported as “high polyreactivity”.
In the case of “QVQLVESGGGLVQAGGSLRLSCAASGSTLEFNARGWYRQAPGKERELVAVINRSDGSTYYAASVKGRFTISRDNAKNTVYLQMNSLKPEDTAVYYCAADRHQVSVISTEDYWGQGTQVTVSS”, the “polyreactivity (PSR sort gate)” value is reported as “low polyreactivity”.
For “QVQLVESGGGLVKAGGSLRLSCAASGITFRKYAMGWYRQAPGKERELVAAITAGGGRTFYADSVKGRFTISRDNAKNTVYLQMNSLKPEDTAVYYCNADLGIGYDYWGQGTQVTVSS”, the “polyreactivity (PSR sort gate)” value was “high polyreactivity”.
With “QVQLVESGGGLVQAGGSLRLSCAASGIIFYFYTMGWYRQAPGKERELVAAISSSGGRTFYADSVKGRFTISRDNAKNTVYLQMNSLKPEDTAVYYCAAAHTREYYWGQGTQVTVSS” the “polyreactivity (PSR sort gate)” value was “high polyreactivity”.
For “QVQLVESGGGLLQAGGSLSLSSAASGITCDLYDMGWYRQAPGKERELVAAITDAHSTYYADSVKGRFTNSRDYAKNTVYLQMNSLKPEDTAVYYCAADWYLYLDDKYDYWGQGTQVTVSS”, the “polyreactivity (PSR sort gate)” value was “low polyreactivity”.
With “QVQLVESGGGLVQAGGSLRLSCAASGRTFFGYAMGWYRQAPGKERELVAAISGGGRTNYADSVKGRFTISRDNAKNTVYLQMNSLKPEDTAVYYCAARLVKYFRPYDYWGQGTQVTVSS” the “polyreactivity (PSR sort gate)” value was “high polyreactivity”.
For “QVQLVESGGGLVQAGGSLRLSCAASGLIFTSYAMGWYRQAPGKERELVAAISRGVRTYYADSVKGRFTISRDNAKNTVYLQMNSLKPEDTAVYYCAAAKPPPGKYDYWGQGTQVTVSS”, the “polyreactivity (PSR sort gate)” value was “high polyreactivity”.
In the case of “QVQLVESGGGLVQAGVSLRLSCAASGFIFSTYAMGGYRQAPGKERELFASIDWSGDSTYYADSVKGRFTISRDNAKNTVYLQMNSLKPEDTAVYYCAASLWPDYEYDYWGQGTQVTVSS”, the “polyreactivity (PSR sort gate)” value is reported as “low polyreactivity”.
In the case of “QVQLVESGGGLVQAGGSLRLSCAASGFTFRYYAMGWYRQAPGKERELVAAITGSGGRTYYADSVKGRFTISRDNAKNTVYLQMNSLKPEDTAVYYCARDVDPRGRYYWGQGTQVTVSS”, the “polyreactivity (PSR sort gate)” value is reported as “high polyreactivity”.
For “QVQLVESGGGLVQAGGSLRLSCAASGRIYWNDMGWYRQAPGKERELVAAISWGGDRTYYADSVKGRFTISRDNAKNSFYLQMNSLKPEDTAVYYFNAPGYLTYDHSYDYWGQGTQVTVSS”, the “polyreactivity (PSR sort gate)” value was “low polyreactivity”.
For “QVQLVESGGGLVQAGGSLRLSCAASGSTFDGYAMGWYRQAPGKERELVAAITSSSTSTYYADSVKGRFTISRDNAKNTVYLQMNSLKPEDTAVYYCAAQYFSYISVYSFYTMGYWGQGTQVTVSS”, the “polyreactivity (PSR sort gate)” value was “low polyreactivity”.
In the case of “QVQLVESGGGLVQAGGSLRLSCAASGSTFFTYAMGWYRQAPGKERELVAAISWSGGTTYYADSVKGRFTISRDNAKNTVYLQMNSLKPEDTAVYYCASDRDGILKANDYWGQGTQVTVSS”, the “polyreactivity (PSR sort gate)” value is reported as “low polyreactivity”.
For “QVQLVESGGGLVQAGGSLRLSCAASGLTFYYYAMGWYSQPPGKERELVAAISIGGSTDYADSVKGRFTISRDNAKNTVYLQMNSLKPEDTAVYYCNVDDNSEYEYWGQGTQVTVSS”, the “polyreactivity (PSR sort gate)” value was “low polyreactivity”.
For “QVQLVESGGGLVQAGGSLRLSCAASGSIFPYYAMGWYRQAPGKERELVAAINWIGGSTYYADSVKGRFTISRDNAKNTVYLQMNSLKPEDTAVYYCAVDYYSYYYEYDYWGQGTQVTVSS”, the “polyreactivity (PSR sort gate)” value was “high polyreactivity”.
In the case of “QVQLVESGGGLVQAGGSLRLSCAASGSIFYNYTMGWSRQAPGKERELVAAISSSGGSTYYADSVKGRFSISRDNAKITVYLQMNSLTPEDTAVYFCAARSPGYYRIVWYDYWGLGTQVTVSS”, the “polyreactivity (PSR sort gate)” value is reported as “high polyreactivity”.
For “QVQIVESGGGLVQAGGSLRLSCAASGNIFDRYAMGWYRQAPGKERELVAGITWSGGSTYYADSVKGRFTISRDNAKNTVYLQMNSLKPDDTAVYYCGQANYYWGLGTQVTVSS”, the “polyreactivity (PSR sort gate)” value was “low polyreactivity”.
With “QVQLVQSRGGLVQAGGSLRISCAASGRIFNPNAMRWDRQAPVKQRELVAAITRGGSTNYADSVKGRLTISRDNAKNTVYLQMISLQPEVSAVLYCAADFKTWYCDFDYCGQGTQVTVSS” the “polyreactivity (PSR sort gate)” value was “high polyreactivity”.
In the case of “QVQLVESGGGLVQAGGSLRLSCAASGSTFYYYAMGWYRQAPGKERELVAAISSGGSTYADSVKGRFTISRDNAKNTVYLQMNSLKPEDTAVYWGQGTQVTVSS”, the “polyreactivity (PSR sort gate)” value is reported as “low polyreactivity”.
For “QVQLVESGGGLVQAVGSLRLSCAASGRTLSRNAKGWYRQAPGKEREFVAAISSRGTSTYYADSVKGRFTISRDNAKNSVYLQMNSLKPEDTAVYYCATTLGGNYGYDYWGQGTQVTVSS”, the “polyreactivity (PSR sort gate)” value was “high polyreactivity”.
For “QVQLVESGGGLVQAGGILRLSCAASGRTLYHYVMGWYRQAPGKERELVAAISSGGSTYYADSVKGRFTISRDNAKNTVYLQMNSLKPEDTEVYYCAAGRRGDWGQGTQVTVSS”, the “polyreactivity (PSR sort gate)” value was “high polyreactivity”.
